The values that follow are results of earlier work, collected in paper PMC4739856.

One may read the pKa as the pH at which an ionisable group is half protonated.

“And” between values parts separate entries of the source, which are not always exact repeats. Identical values can stand only once. Like-named read-outs stand apart in the source and are kept apart here.

In data set [1] the target is T1, His119 (UniProt position 145, PYVPVHFDASV). Nature of the data set: NMR. The following applies: apo (ligand-free) RNase A.
In data set [2] the target is T2, His12 (UniProt position 38, KFERQHMDSST). Put plainly: NMR. The following applies: apo (ligand-free) RNase A.
In data set [3] the target is T1, His119.
In data set [4] the target is T2, His12.

Regarding “Ribonuclease A (RNase A, pancreatic ribonuclease) (Bos taurus)”, the pKa was 6.03 and 6.34 with His119 [1]; 5.87 and 6.18 in the data set with His12 [2]; 6.2 in the data set with His119 [3] (apo (ligand-free) RNase A); 7.4 with His119 [3] (complex with 3'-CMP); 5.8 with His12 [4] (apo (ligand-free) RNase A); 8.0 with His12 [4] (complex with 3'-CMP).
